# Assay results reported in patent publication US5648211.
# Tested on: BsrI
# Assay: cleavage_in_vitro
# Conditions: PS at A in filled-in regions; SDA cycle turnover with Bst polymerase; 60 C, 6 mM MgCl2, 50 mM KCl, pH 7.6
sequence,measurement,value
CCACCTCTGACTTGAGCGTCCCAGTGTCAATACGGCGGAGCCTATGGAGTAACGCC / GCAAAAGGCCAGGAACCGATAAAAGGATGCGTTGCTGGCGTTACTCCATAGGCTCCG [linear SDA BsrI duplex (filled in to 92 bp)],activity,1 min⁻¹
